Measurements from article PMC7234994, “Structural insights into the inhibition mechanism of human sterol O-acyltransferase 1 by a competitive inhibitor” (Nature Communications, 2020).

Tests used:
[1] = molecular target: the molecule itself; test: SEC; fluorescence-detection SEC (FSEC) of N-terminal GFP-tagged hSOAT1 solubilized in detergent micelles; elution compared with dimeric mouse TPC1 (189 kDa)
[2] = molecular target: the molecule itself; test: cryo-EM structure; hSOAT1 full length in detergent micelles with CI-976; one 3D class refined to 12 Å
[3] = molecular target: the molecule itself; test: cryo-EM structure; hSOAT1 66-550 in nanodisc (MSP2X) with inhibitor CI-976; 3.5 Å, C2 symmetry

B1: N-terminal GFP-tagged full-length human SOAT1 (1-550) (enzyme, UniProt P35610 1-550, looked up)
chain: MVGEEKMSLRNRLSKSRENPEEDEDQRNPAKESLETPSNGRIDIKQLIAKKIKLTAEAEELKPFFMKEVGSHFDDFVTNLIEKSASLDNGGCALTTFSVLEGEKNNHRAKDLRAPPEQGKIFIARRSLLDELLEVDHIRTIYHMFIALLILFILSTLVVDYIDEGRLVLEFSLLSYAFGKFPTVVWTWWIMFLSTFSVPYFLFQHWATGYSKSSHPLIRSLFHGFLFMIFQIGVLGFGPTYVVLAYTLPPASRFIIIFEQIRFVMKAHSFVRENVPRVLNSAKEKSSTVPIPTVNQYLYFLFAPTLIYRDSYPRNPTVRWGYVAMKFAQVFGCFFYVYYIFERLCAPLFRNIKQEPFSARVLVLCVFNSILPGVLILFLTFFAFLHCWLNAFAEMLRFGDRMFYKDWWNSTSYSNYYRTWNVVVHDWLYYYAYKDFLWFFSKRFKSAAMLAVFAVSAVVHEYALAVCLSFFYPVLFVLFMFFGMAFNFIVNDSRKKPIWNVLMWTSLFLGNGVLLCFYSQEWYARQHCPLKNPTFLDYVRPRSWTCRYVF
notes: human sterol O-acyltransferase 1 (SOAT1), full-length, residues 1-550; BacMam vector with N-terminal His7-strep-GFP tags; detected by GFP fluorescence in FSEC; also called hSOAT1; sterol O-acyltransferase 1; source: solubilized in detergent micelles; not shown: GFP, N-terminal, kept
[1]
  stoichiometry N: 4

B2: human SOAT1 full-length (1-550), purified, tags removed (enzyme, UniProt P35610 1-550, looked up)
chain: MVGEEKMSLRNRLSKSRENPEEDEDQRNPAKESLETPSNGRIDIKQLIAKKIKLTAEAEELKPFFMKEVGSHFDDFVTNLIEKSASLDNGGCALTTFSVLEGEKNNHRAKDLRAPPEQGKIFIARRSLLDELLEVDHIRTIYHMFIALLILFILSTLVVDYIDEGRLVLEFSLLSYAFGKFPTVVWTWWIMFLSTFSVPYFLFQHWATGYSKSSHPLIRSLFHGFLFMIFQIGVLGFGPTYVVLAYTLPPASRFIIIFEQIRFVMKAHSFVRENVPRVLNSAKEKSSTVPIPTVNQYLYFLFAPTLIYRDSYPRNPTVRWGYVAMKFAQVFGCFFYVYYIFERLCAPLFRNIKQEPFSARVLVLCVFNSILPGVLILFLTFFAFLHCWLNAFAEMLRFGDRMFYKDWWNSTSYSNYYRTWNVVVHDWLYYYAYKDFLWFFSKRFKSAAMLAVFAVSAVVHEYALAVCLSFFYPVLFVLFMFFGMAFNFIVNDSRKKPIWNVLMWTSLFLGNGVLLCFYSQEWYARQHCPLKNPTFLDYVRPRSWTCRYVF
notes: human sterol O-acyltransferase 1 (SOAT1), full-length, residues 1-550; Studied in digitonin/GDN micelles and in MSP2N2 nanodiscs with soybean polar lipids; also called hSOAT1; hSOAT1 tetramer; source: HEK293F, BacMam infected, purified (strep-tactin, PreScission, superose-6); not shown: His7, N-terminal, cleaved; strep, N-terminal, cleaved; GFP, N-terminal, cleaved
[2]
  stoichiometry N: 4

B3: N-terminal GFP-tagged N-terminal truncated human SOAT1 (66-550) (domain or fragment, UniProt P35610 66-550, looked up)
chain: MKEVGSHFDDFVTNLIEKSASLDNGGCALTTFSVLEGEKNNHRAKDLRAPPEQGKIFIARRSLLDELLEVDHIRTIYHMFIALLILFILSTLVVDYIDEGRLVLEFSLLSYAFGKFPTVVWTWWIMFLSTFSVPYFLFQHWATGYSKSSHPLIRSLFHGFLFMIFQIGVLGFGPTYVVLAYTLPPASRFIIIFEQIRFVMKAHSFVRENVPRVLNSAKEKSSTVPIPTVNQYLYFLFAPTLIYRDSYPRNPTVRWGYVAMKFAQVFGCFFYVYYIFERLCAPLFRNIKQEPFSARVLVLCVFNSILPGVLILFLTFFAFLHCWLNAFAEMLRFGDRMFYKDWWNSTSYSNYYRTWNVVVHDWLYYYAYKDFLWFFSKRFKSAAMLAVFAVSAVVHEYALAVCLSFFYPVLFVLFMFFGMAFNFIVNDSRKKPIWNVLMWTSLFLGNGVLLCFYSQEWYARQHCPLKNPTFLDYVRPRSWTCRYVF
notes: human sterol O-acyltransferase 1 (SOAT1), residues 66-550 (N-terminal tetramerization domain deleted); also called hSOAT1 dimer; SOAT1-dimer (66-550); source: HEK293F, transfected, solubilized with 1% GDN (supernatant, not purified); not shown: GFP, N-terminal, kept
[1]
  stoichiometry N: 2

B4: human SOAT1 dimer construct (66-550), purified, tags removed (domain or fragment, UniProt P35610 66-550, looked up)
chain: MKEVGSHFDDFVTNLIEKSASLDNGGCALTTFSVLEGEKNNHRAKDLRAPPEQGKIFIARRSLLDELLEVDHIRTIYHMFIALLILFILSTLVVDYIDEGRLVLEFSLLSYAFGKFPTVVWTWWIMFLSTFSVPYFLFQHWATGYSKSSHPLIRSLFHGFLFMIFQIGVLGFGPTYVVLAYTLPPASRFIIIFEQIRFVMKAHSFVRENVPRVLNSAKEKSSTVPIPTVNQYLYFLFAPTLIYRDSYPRNPTVRWGYVAMKFAQVFGCFFYVYYIFERLCAPLFRNIKQEPFSARVLVLCVFNSILPGVLILFLTFFAFLHCWLNAFAEMLRFGDRMFYKDWWNSTSYSNYYRTWNVVVHDWLYYYAYKDFLWFFSKRFKSAAMLAVFAVSAVVHEYALAVCLSFFYPVLFVLFMFFGMAFNFIVNDSRKKPIWNVLMWTSLFLGNGVLLCFYSQEWYARQHCPLKNPTFLDYVRPRSWTCRYVF
notes: human sterol O-acyltransferase 1 (SOAT1), residues 66-550; residues 66-117 invisible in the map; Reconstituted into MSP2X nanodiscs; also called hSOAT1 dimer; hSOAT1 66-550; source: HEK293F, BacMam infected, purified (strep-tactin, PreScission, superose-6); not shown: His7, N-terminal, cleaved; strep, N-terminal, cleaved; GFP, N-terminal, cleaved
[3]
  stoichiometry N: 2
